Assay results taken from the supplement of paper PMC9112550, “Optimization of the antimicrobial peptide Bac7 by deep mutational scanning” (BMC Biology, 2022).

tested on: Escherichia coli TOP10; test: shrunken log2 fold change of peptide-encoding DNA abundance (4.5 h post-induction vs induction); higher = less antimicrobial activity (less host growth inhibition); details: time post-induction: 4.5 h; library: site-saturation at positions 5, 18, 19, 20
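Also: peptides expressed intracellularly from a pBAD plasmid library in pooled LB shake-flask culture, induced with 0.3% L-arabinose, DNA abundance read by NGS, three biological replicates, DESeq2 with apeglm shrinkage.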

Sequence | shrunken log2 fold change
RRIRYRPPRLPRPRPRPYMLPRP | -1.3
RRIRARPPRLPRPRPRPQKHPRP | 0.0336
RRIRPRPPRLPRPRPRPTMQPRP | 0.393
RRIRKRPPRLPRPRPRPNNSPRP | -0.371
RRIRLRPPRLPRPRPRPPSNPRP | 0.00215
RRIRGRPPRLPRPRPRPRAAPRP | 1.53
RRIRQRPPRLPRPRPRPVIGPRP | -0.0941
RRIRDRPPRLPRPRPRPAEWPRP | 0.0244
RRIRARPPRLPRPRPRPQSQPRP | -0.0155
RRIRFRPPRLPRPRPRPHKIPRP | -0.495
RRIRDRPPRLPRPRPRPIGFPRP | 0.0229
RRIRPRPPRLPRPRPRPVTCPRP | -0.237
RRIRKRPPRLPRPRPRPIWLPRP | 0.00836
RRIRCRPPRLPRPRPRPNKDPRP | -0.534
RRIRGRPPRLPRPRPRPIYVPRP | 1.23
RRIRRRPPRLPRPRPRPMTWPRP | -0.154
RRIRNRPPRLPRPRPRPNECPRP | -0.124
RRIRYRPPRLPRPRPRPWDSPRP | -0.00191
RRIRTRPPRLPRPRPRPECIPRP | 0.0878
RRIRDRPPRLPRPRPRPLIFPRP | 0.135
RRIRIRPPRLPRPRPRPLHDPRP | 0.181
RRIRHRPPRLPRPRPRPAWEPRP | 0.421

Sequence | shrunken log2 fold change
RRIRSRPPRLPRPRPRPIIGPRP | -0.276
RRIRIRPPRLPRPRPRPWHKPRP | -0.00213
RRIRVRPPRLPRPRPRPILKPRP | -0.203
RRIRCRPPRLPRPRPRPTMLPRP | -0.096
RRIRPRPPRLPRPRPRPKPWPRP | 0.227
RRIRLRPPRLPRPRPRPEQRPRP | 0.0422
RRIRQRPPRLPRPRPRPYCNPRP | -1.38
RRIRPRPPRLPRPRPRPTNTPRP | -0.375
RRIRARPPRLPRPRPRPLFPPRP | 0.148
RRIRERPPRLPRPRPRPATMPRP | -0.324
RRIRVRPPRLPRPRPRPYKEPRP | 0.0231
RRIRRRPPRLPRPRPRPVHDPRP | -0.305
RRIRPRPPRLPRPRPRPVKGPRP | 0.203
RRIRMRPPRLPRPRPRPCTNPRP | 0.0685
RRIRCRPPRLPRPRPRPPCFPRP | 0.197
RRIRPRPPRLPRPRPRPTKWPRP | 0.187
RRIRMRPPRLPRPRPRPPWWPRP | 1.01
RRIRKRPPRLPRPRPRPIFFPRP | 0.414
RRIRERPPRLPRPRPRPCTMPRP | 0.018
RRIRTRPPRLPRPRPRPPQFPRP | 0.11
RRIRKRPPRLPRPRPRPNIPPRP | -0.237
RRIRCRPPRLPRPRPRPEFVPRP | 0.105

Sequence | shrunken log2 fold change
RRIRARPPRLPRPRPRPADYPRP | 0.177
RRIRRRPPRLPRPRPRPDGYPRP | -0.0109
RRIRYRPPRLPRPRPRPWMWPRP | 0.0261
RRIRLRPPRLPRPRPRPDTTPRP | -0.138
RRIRHRPPRLPRPRPRPLPTPRP | 0.245
RRIRLRPPRLPRPRPRPAQCPRP | -0.23
RRIRQRPPRLPRPRPRPVGNPRP | -0.108
RRIRLRPPRLPRPRPRPDENPRP | 0.087
RRIRIRPPRLPRPRPRPAYHPRP | -0.639
RRIRYRPPRLPRPRPRPEYVPRP | -0.0327
RRIRFRPPRLPRPRPRPCDFPRP | -0.255
RRIRFRPPRLPRPRPRPVEVPRP | -1.6
RRIRQRPPRLPRPRPRPQKNPRP | -0.297
RRIRDRPPRLPRPRPRPNDTPRP | 0.0133
RRIRRRPPRLPRPRPRPIVTPRP | 0.0446
RRIRYRPPRLPRPRPRPAYRPRP | -0.0312
RRIRIRPPRLPRPRPRPNFIPRP | -0.327
RRIRQRPPRLPRPRPRPREGPRP | 0.151
RRIRNRPPRLPRPRPRPEWQPRP | -0.0264
RRIRARPPRLPRPRPRPTTGPRP | 0.331
RRIRSRPPRLPRPRPRPRWMPRP | -0.206
RRIRMRPPRLPRPRPRPHGYPRP | 0.185

Sequence | shrunken log2 fold change
RRIRCRPPRLPRPRPRPAICPRP | 0.0424
RRIRYRPPRLPRPRPRPYYLPRP | -0.31
RRIRDRPPRLPRPRPRPVKKPRP | -0.0221
RRIRFRPPRLPRPRPRPRSFPRP | -0.138
RRIRVRPPRLPRPRPRPVKEPRP | 0.629
RRIRVRPPRLPRPRPRPRDYPRP | -0.0816
RRIRARPPRLPRPRPRPGGAPRP | 0.76
RRIRPRPPRLPRPRPRPLHYPRP | -0.11
RRIRLRPPRLPRPRPRPGMGPRP | 0.241
RRIRHRPPRLPRPRPRPQRVPRP | -0.139
RRIRIRPPRLPRPRPRPRTEPRP | 0.0225
RRIRDRPPRLPRPRPRPGYAPRP | 0.137
RRIRQRPPRLPRPRPRPRQCPRP | 0.152
RRIRHRPPRLPRPRPRPHPFPRP | -0.3
RRIRERPPRLPRPRPRPEWIPRP | 0.064
RRIRIRPPRLPRPRPRPTIIPRP | -0.848
RRIRDRPPRLPRPRPRPEGTPRP | -0.042
RRIRIRPPRLPRPRPRPKDDPRP | -0.254
RRIRRRPPRLPRPRPRPMCHPRP | -0.191
RRIRPRPPRLPRPRPRPVYRPRP | -0.166
RRIRKRPPRLPRPRPRPGRVPRP | 0.58
RRIRMRPPRLPRPRPRPHVVPRP | -0.0448

Sequence | shrunken log2 fold change
RRIRGRPPRLPRPRPRPDAIPRP | 1.38
RRIRVRPPRLPRPRPRPSCDPRP | -0.231
RRIRDRPPRLPRPRPRPSFPPRP | -0.362
RRIRFRPPRLPRPRPRPDCCPRP | -0.0954
RRIRNRPPRLPRPRPRPEHDPRP | 0.0627
RRIRIRPPRLPRPRPRPQPLPRP | -0.371
RRIRGRPPRLPRPRPRPFQVPRP | 0.0301
RRIRLRPPRLPRPRPRPSSNPRP | -0.211
RRIRMRPPRLPRPRPRPKFTPRP | 0.313
RRIRSRPPRLPRPRPRPFQEPRP | -0.0528
RRIRMRPPRLPRPRPRPVRSPRP | 1.23
RRIRMRPPRLPRPRPRPVMRPRP | 0.305
RRIRRRPPRLPRPRPRPQHWPRP | 0.179
RRIRFRPPRLPRPRPRPWCKPRP | -0.0278
RRIRHRPPRLPRPRPRPIMPPRP | -0.74
RRIRHRPPRLPRPRPRPPIAPRP | -0.0868
RRIRYRPPRLPRPRPRPIQYPRP | -0.18
RRIRGRPPRLPRPRPRPNLYPRP | 0.0462
